B1: STX5 (parent)
chain: ESTIVELGSIFQQLAHMVKEQEET
B2: CCND2 (parent)
chain: YFKCVQKDIQPYMRRMVATWMLEV

Variants of: B1
Experiment: protein stability index of a GFP-peptide fusion (GPS, HEK-293T) (PSI 1-6); higher = more stable
Settings: c terminus: a fixed tail appended
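Also: lentivirally expressed fusions sorted by FACS into six bins by GFP to DsRed ratio, PSI derived from sequencing read proportions per bin multiplied by bin number.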

Protein stability index: each site, then its substitutions
V5: L 2.04; Q 2.07; E 2.12; C 2.58; M 2.56; W 2.22; Y 2.28; R 2.88; S 2.46; T 1.99; F 1.83; H 1.71; A 2.28; P 3.5; N 2.04; I 2.55; G 2.79; D 3; K 3.1
T3: F 1.3; I 2.94; W 1.24; V 2.56; A 2.96; D 2.04; Q 3.88; M 1.44; S 2.72; K 2.83; N 2.31; E 1.43; Y 2.05; P 3.03; R 3.19; H 2.4; L 1.85; C 2.02
E1: H 1.27; K 1.87; P 2.71; S 1.9; V 1.79; Q 1.68; W 1.61; A 2.13; F 2.08; D 2.77; G 2.69; I 3.04; N 2.22; R 2.27; C 2.31; L 2.6; Y 2.49; M 2.45; T 2.26
L7: H 4.9; P 4.75; Y 3.97; R 5.13; F 3.03; N 4.96; G 5.65; K 5.07; Q 4.89; W 2.99; D 5.12; S 5.42; V 4.25; T 4.5; E 5.22; C 3.74; I 2.16; M 2.48
G8: A 2.47; H 2.48; I 2.24; K 1.94; F 2.06; D 2.28; C 2.33; E 3.02
E6: H 2.33; D 1.63; Q 2.33; V 1.62; C 2.06; L 2.34; Y 1.81; N 3.14; G 2.75; M 1.95; K 2.54; R 4.41; I 3.1; F 2.19; A 1.65; T 1.91; P 2.75
I4: Q 3.69; T 2.73; P 2.93; D 2.78; A 2.27; V 3.59; W 2.54; Y 1.91; K 2.55; C 2.83; G 2.42; M 1.57; E 2.8; S 2.64; R 3; H 3.14; F 2.29; N 3.05; L 1.81
S2: W 2.19; T 2.05; A 1.39; P 1.7; V 3.07; Y 1.7; L 2.28; G 1.78; K 2.24; C 3.01; Q 1.97; E 2.62; N 1.97; M 1; H 1.92; F 2.93; I 1.86; R 1.25; D 2.47

Variants of: B2
Experiment: as above
Settings: c terminus: a fixed tail appended

Protein stability index of substitutions, site by site:
V24: Q 2.5; E 2.42; M 2.09; A 2.41; W 1.91; T 1.9; D 1.56; C 1.93; Y 2.06; H 1.94; S 2.97; K 1.63; R 2.65; G 2.9; F 3.08; P 1.91; I 3.24; L 2.68
M21: F 1.96; E 2.72; A 1.67; N 2.54; C 3.87; I 2.58; D 2.43; P 2.24; Q 1.76; R 1.86; K 3.19; W 4.25; S 3.49; V 2.55; G 2.52; H 2.08; L 1.76
E23: P 3.09; R 2.96; T 2.88; C 2.61; V 2.73; Q 2.13; G 3.51; M 2.9; D 2.08; N 2.39; A 1.78; H 2.28; K 2.31; W 3.1; F 2.5; L 3.11; I 3.03; Y 3.34; S 3.08
T19: Y 3.88; M 1.84; D 1.97; W 2.88; A 3.42; P 1.41; S 2.83; G 2.5; I 2.75; Q 1.75; H 3.25; K 3; E 1.44; N 3.9; R 1.58; F 2.85; V 2.61
R15: F 4.08; Y 2.81; V 3.01; C 3.12; G 2.35; H 2.75; N 3.95; W 3.97; A 1.77; P 3.69; D 3.42; K 2.36; E 3.42; S 2.55; L 2.33; I 2.75
M16: D 2.09; L 3.06; N 1.51; I 3.33; S 2.58; H 2.35; G 3.04; F 3.28; V 2.3; A 3.12; R 2.65; Y 2.41; E 2.45; K 2.67; Q 2.91; P 3.25; T 3.51
V17: C 3.2; M 2; F 2.44; W 4.01; P 2.44; R 3.03; G 3.39; T 3.15; L 2.28; E 2.49; S 1.77; H 3.14; K 2.5; N 2.15; I 2.65; A 1.55; D 3.18; Q 2.63
W20: P 2.58; A 2.36; N 1.24; V 3.41; L 4.58; R 2.17; Q 2.61; D 1.63; G 1.95; H 2.88; S 2; I 2.57; F 2.34; K 1.84; Y 3.49; C 3.44; E 3.61; T 2.18
R14: C 2.77; W 1.74; N 2.06; A 3.47; Y 3.2; D 2.16; V 2.55; E 2.24; S 3.39; P 3.71; T 4.32; I 2.63; Q 1.73; G 2.28; K 1.44; L 4.22
L22: A 3.01; H 1.59; I 2.61; T 3; K 2.34; G 2.07; W 2.6; C 2.25; R 1.96; F 4.78; Y 2; D 1.89; S 2.72; N 1.65; P 1.63; Q 1.96; E 1.74; V 2.94
A18: E 3.2; C 1.44; Y 4.28; K 2.69; N 3.36; F 3.1; D 2.37; R 4.17; L 3.85; W 2.98; T 3.65; P 2.96; Q 3.45; H 2.17
M13: K 3.64; H 2.92; R 2.42; Q 2.65; V 1.66; G 2.58; I 3.3; Y 3.66; T 2.96

From the supplement of paper PMC10567573
